Source: patent US20120282700A1

Key:
[1] = biological target: Alexa Fluor 488 conjugated rabbit anti-mouse antibody (Invitrogen; A-11059); assay: flow cytometry, 2 µg Alexa Fluor 488 rabbit anti-mouse antibody on Sdlba3b-expressing L. lactis cells; control cells (pNZ8148) 2.26
[2] = biological target: Alexa Fluor 488 conjugated rabbit anti-mouse antibody (Invitrogen; A-11059); assay: flow cytometry with Alexa Fluor 488 rabbit anti-mouse antibody after 30 min in simulated gastric juice (pepsin, pH 2.0 or 4.0), against incubation at pH 7.0
M13/HRP antibody = assay: depletion of M13/HRP antibody (0.45-9.0 µg/mL) from the supernatant by pSDLBA3b cells, TMB read-out, Langmuir linear regression

mean fluorescence intensity [1]: 151
loss of fluorescence intensity [2]: < 14%
maximum amount of adsorbed antibody (µg per 1×10^8 cells) (M13/HRP antibody): 0.146
Substance: Sdlba3b fusion protein (encoded by pSDLBA3b), immunoglobulin-binding B domain displayed on the surface of L. lactis (from UniProt P38507 212-269)
